The source of these data is patent US20140087995A1 (published 2014).

First the molecules themselves.
T1: human amylin receptor (amylin 3(a) receptor: human calcitonin receptor co-expressed with RAMP-3) (human, UniProt P30988 25-474; O60896 24-148, limits assumed)
T1 sequence (looked up) 1: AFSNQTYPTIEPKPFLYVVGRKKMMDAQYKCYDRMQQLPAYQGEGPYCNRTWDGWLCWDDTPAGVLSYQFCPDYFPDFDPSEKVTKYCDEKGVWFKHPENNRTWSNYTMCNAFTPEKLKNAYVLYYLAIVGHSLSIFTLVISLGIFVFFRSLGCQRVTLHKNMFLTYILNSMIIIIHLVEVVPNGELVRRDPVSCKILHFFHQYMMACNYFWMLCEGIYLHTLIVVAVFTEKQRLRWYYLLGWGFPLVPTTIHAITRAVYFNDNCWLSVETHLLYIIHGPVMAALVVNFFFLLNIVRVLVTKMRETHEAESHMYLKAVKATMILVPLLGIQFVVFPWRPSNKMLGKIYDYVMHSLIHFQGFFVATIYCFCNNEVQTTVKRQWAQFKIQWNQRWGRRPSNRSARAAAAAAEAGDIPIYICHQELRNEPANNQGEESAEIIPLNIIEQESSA
T1 sequence (looked up) 2: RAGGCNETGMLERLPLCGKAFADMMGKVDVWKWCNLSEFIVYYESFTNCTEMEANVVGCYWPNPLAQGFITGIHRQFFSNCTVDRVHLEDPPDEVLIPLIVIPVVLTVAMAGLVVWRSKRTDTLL

T2: human calcitonin receptor (human, UniProt P30988 25-474)
T2 sequence (looked up): T1 sequence (looked up) 1

B1: N^ε1-[2-[2-[2-[[(4S)-4-carboxy-4-(19-carboxynonadecanoylamino)butanoyl]amino]ethoxy]ethoxy]acetyl]-[Arg17,Pro21,Pro27,Pro29,Pro34]-h-amylin (peptide)
peptide: K([AEEA-γGlu-C20 diacid])CNTATCATQRLANFLRHSSPNFGAIPSPTNVGPNTY-NH2
modifications: disulfide 2-7; N-terminus assumed
SMILES: CC[C@H](C)[C@H](NC(=O)[C@H](C)NC(=O)CNC(=O)[C@H](Cc1ccccc1)NC(=O)[C@H](CC(N)=O)NC(=O)[C@@H]1CCCN1C(=O)[C@H](CO)NC(=O)[C@H](CO)NC(=O)[C@H](Cc1c[nH]cn1)NC(=O)[C@H](CCCNC(=N)N)NC(=O)[C@H](CC(C)C)NC(=O)[C@H](Cc1ccccc1)NC(=O)[C@H](CC(N)=O)NC(=O)[C@H](C)NC(=O)[C@H](CC(C)C)NC(=O)[C@H](CCCNC(=N)N)NC(=O)[C@H](CCC(N)=O)NC(=O)[C@@H](NC(=O)[C@H](C)NC(=O)[C@@H]1CSSC[C@H](NC(=O)[C@@H](N)CCCCNC(=O)COCCOCCNC(=O)CC[C@H](NC(=O)CCCCCCCCCCCCCCCCCCC(=O)O)C(=O)O)C(=O)N[C@@H](CC(N)=O)C(=O)N[C@@H]([C@@H](C)O)C(=O)N[C@@H](C)C(=O)N[C@@H]([C@@H](C)O)C(=O)N1)[C@@H](C)O)C(=O)N1CCC[C@H]1C(=O)N[C@@H](CO)C(=O)N1CCC[C@H]1C(=O)N[C@H](C(=O)N[C@@H](CC(N)=O)C(=O)N[C@H](C(=O)NCC(=O)N1CCC[C@H]1C(=O)N[C@@H](CC(N)=O)C(=O)N[C@H](C(=O)N[C@@H](Cc1ccc(O)cc1)C(N)=O)[C@@H](C)O)C(C)C)[C@@H](C)O
notes: also called compound 56
B2: N^ε1-[2-[2-[2-[[(4S)-4-carboxy-4-(19-carboxynonadecanoylamino)butanoyl]amino]ethoxy]ethoxy]acetyl]-[His14,Arg17,Pro21,Pro27,Arg34]-h-amylin (peptide)
peptide: K([AEEA-γGlu-C20 diacid])CNTATCATQRLAHFLRHSSPNFGAIPSSTNVGRNTY-NH2
modifications: disulfide 2-7; N-terminus assumed
SMILES: CC[C@H](C)[C@H](NC(=O)[C@H](C)NC(=O)CNC(=O)[C@H](Cc1ccccc1)NC(=O)[C@H](CC(N)=O)NC(=O)[C@@H]1CCCN1C(=O)[C@H](CO)NC(=O)[C@H](CO)NC(=O)[C@H](Cc1c[nH]cn1)NC(=O)[C@H](CCCNC(=N)N)NC(=O)[C@H](CC(C)C)NC(=O)[C@H](Cc1ccccc1)NC(=O)[C@H](Cc1c[nH]cn1)NC(=O)[C@H](C)NC(=O)[C@H](CC(C)C)NC(=O)[C@H](CCCNC(=N)N)NC(=O)[C@H](CCC(N)=O)NC(=O)[C@@H](NC(=O)[C@H](C)NC(=O)[C@@H]1CSSC[C@H](NC(=O)[C@@H](N)CCCCNC(=O)COCCOCCNC(=O)CC[C@H](NC(=O)CCCCCCCCCCCCCCCCCCC(=O)O)C(=O)O)C(=O)N[C@@H](CC(N)=O)C(=O)N[C@@H]([C@@H](C)O)C(=O)N[C@@H](C)C(=O)N[C@@H]([C@@H](C)O)C(=O)N1)[C@@H](C)O)C(=O)N1CCC[C@H]1C(=O)N[C@@H](CO)C(=O)N[C@@H](CO)C(=O)N[C@H](C(=O)N[C@@H](CC(N)=O)C(=O)N[C@H](C(=O)NCC(=O)N[C@@H](CCCNC(=N)N)C(=O)N[C@@H](CC(N)=O)C(=O)N[C@H](C(=O)N[C@@H](Cc1ccc(O)cc1)C(N)=O)[C@@H](C)O)C(C)C)[C@@H](C)O
notes: also called compound 84
B3: N^ε1-[2-[2-[2-[[(4S)-4-carboxy-4-(19-carboxynonadecanoylamino)butanoyl]amino]ethoxy]ethoxy]acetyl]-[His14,Arg17,Pro21,Pro27,His34]-h-amylin (peptide)
peptide: K([AEEA-γGlu-C20 diacid])CNTATCATQRLAHFLRHSSPNFGAIPSSTNVGHNTY-NH2
modifications: disulfide 2-7; N-terminus assumed
SMILES: CC[C@H](C)[C@H](NC(=O)[C@H](C)NC(=O)CNC(=O)[C@H](Cc1ccccc1)NC(=O)[C@H](CC(N)=O)NC(=O)[C@@H]1CCCN1C(=O)[C@H](CO)NC(=O)[C@H](CO)NC(=O)[C@H](Cc1c[nH]cn1)NC(=O)[C@H](CCCNC(=N)N)NC(=O)[C@H](CC(C)C)NC(=O)[C@H](Cc1ccccc1)NC(=O)[C@H](Cc1c[nH]cn1)NC(=O)[C@H](C)NC(=O)[C@H](CC(C)C)NC(=O)[C@H](CCCNC(=N)N)NC(=O)[C@H](CCC(N)=O)NC(=O)[C@@H](NC(=O)[C@H](C)NC(=O)[C@@H]1CSSC[C@H](NC(=O)[C@@H](N)CCCCNC(=O)COCCOCCNC(=O)CC[C@H](NC(=O)CCCCCCCCCCCCCCCCCCC(=O)O)C(=O)O)C(=O)N[C@@H](CC(N)=O)C(=O)N[C@@H]([C@@H](C)O)C(=O)N[C@@H](C)C(=O)N[C@@H]([C@@H](C)O)C(=O)N1)[C@@H](C)O)C(=O)N1CCC[C@H]1C(=O)N[C@@H](CO)C(=O)N[C@@H](CO)C(=O)N[C@H](C(=O)N[C@@H](CC(N)=O)C(=O)N[C@H](C(=O)NCC(=O)N[C@@H](Cc1c[nH]cn1)C(=O)N[C@@H](CC(N)=O)C(=O)N[C@H](C(=O)N[C@@H](Cc1ccc(O)cc1)C(N)=O)[C@@H](C)O)C(C)C)[C@@H](C)O
notes: also called compound 80
B4: N^ε1-[2-[2-[2-[[(4S)-4-carboxy-4-(19-carboxynonadecanoylamino)butanoyl]amino]ethoxy]ethoxy]acetyl]-[Arg17,Pro21,Pro27,Pro31,His35]-h-amylin (peptide)
peptide: K([AEEA-γGlu-C20 diacid])CNTATCATQRLANFLRHSSPNFGAIPSSTPVGSHTY-NH2
modifications: disulfide 2-7; N-terminus assumed
SMILES: CC[C@H](C)[C@H](NC(=O)[C@H](C)NC(=O)CNC(=O)[C@H](Cc1ccccc1)NC(=O)[C@H](CC(N)=O)NC(=O)[C@@H]1CCCN1C(=O)[C@H](CO)NC(=O)[C@H](CO)NC(=O)[C@H](Cc1c[nH]cn1)NC(=O)[C@H](CCCNC(=N)N)NC(=O)[C@H](CC(C)C)NC(=O)[C@H](Cc1ccccc1)NC(=O)[C@H](CC(N)=O)NC(=O)[C@H](C)NC(=O)[C@H](CC(C)C)NC(=O)[C@H](CCCNC(=N)N)NC(=O)[C@H](CCC(N)=O)NC(=O)[C@@H](NC(=O)[C@H](C)NC(=O)[C@@H]1CSSC[C@H](NC(=O)[C@@H](N)CCCCNC(=O)COCCOCCNC(=O)CC[C@H](NC(=O)CCCCCCCCCCCCCCCCCCC(=O)O)C(=O)O)C(=O)N[C@@H](CC(N)=O)C(=O)N[C@@H]([C@@H](C)O)C(=O)N[C@@H](C)C(=O)N[C@@H]([C@@H](C)O)C(=O)N1)[C@@H](C)O)C(=O)N1CCC[C@H]1C(=O)N[C@@H](CO)C(=O)N[C@@H](CO)C(=O)N[C@H](C(=O)N1CCC[C@H]1C(=O)N[C@H](C(=O)NCC(=O)N[C@@H](CO)C(=O)N[C@@H](Cc1c[nH]cn1)C(=O)N[C@H](C(=O)N[C@@H](Cc1ccc(O)cc1)C(N)=O)[C@@H](C)O)C(C)C)[C@@H](C)O
notes: also called compound 57
B5: N^ε1-[2-[2-[2-[[(4S)-4-carboxy-4-(19-carboxynonadecanoylamino)butanoyl]amino]ethoxy]ethoxy]acetyl]-[Arg17,Pro21,Pro27,Pro34,His35]-h-amylin (peptide)
peptide: K([AEEA-γGlu-C20 diacid])CNTATCATQRLANFLRHSSPNFGAIPSSTNVGPHTY-NH2
modifications: disulfide 2-7; N-terminus assumed
SMILES: CC[C@H](C)[C@H](NC(=O)[C@H](C)NC(=O)CNC(=O)[C@H](Cc1ccccc1)NC(=O)[C@H](CC(N)=O)NC(=O)[C@@H]1CCCN1C(=O)[C@H](CO)NC(=O)[C@H](CO)NC(=O)[C@H](Cc1c[nH]cn1)NC(=O)[C@H](CCCNC(=N)N)NC(=O)[C@H](CC(C)C)NC(=O)[C@H](Cc1ccccc1)NC(=O)[C@H](CC(N)=O)NC(=O)[C@H](C)NC(=O)[C@H](CC(C)C)NC(=O)[C@H](CCCNC(=N)N)NC(=O)[C@H](CCC(N)=O)NC(=O)[C@@H](NC(=O)[C@H](C)NC(=O)[C@@H]1CSSC[C@H](NC(=O)[C@@H](N)CCCCNC(=O)COCCOCCNC(=O)CC[C@H](NC(=O)CCCCCCCCCCCCCCCCCCC(=O)O)C(=O)O)C(=O)N[C@@H](CC(N)=O)C(=O)N[C@@H]([C@@H](C)O)C(=O)N[C@@H](C)C(=O)N[C@@H]([C@@H](C)O)C(=O)N1)[C@@H](C)O)C(=O)N1CCC[C@H]1C(=O)N[C@@H](CO)C(=O)N[C@@H](CO)C(=O)N[C@H](C(=O)N[C@@H](CC(N)=O)C(=O)N[C@H](C(=O)NCC(=O)N1CCC[C@H]1C(=O)N[C@@H](Cc1c[nH]cn1)C(=O)N[C@H](C(=O)N[C@@H](Cc1ccc(O)cc1)C(N)=O)[C@@H](C)O)C(C)C)[C@@H](C)O
notes: also called compound 58
B6: N^ε1-[2-[2-[2-[[(4S)-4-carboxy-4-(19-carboxynonadecanoylamino)butanoyl]amino]ethoxy]ethoxy]acetyl]-[Gly14,Arg17,Pro21,Pro27,Pro31]-h-amylin (peptide)
peptide: K([AEEA-γGlu-C20 diacid])CNTATCATQRLAGFLRHSSPNFGAIPSSTPVGSNTY-NH2
modifications: disulfide 2-7; N-terminus assumed
SMILES: CC[C@H](C)[C@H](NC(=O)[C@H](C)NC(=O)CNC(=O)[C@H](Cc1ccccc1)NC(=O)[C@H](CC(N)=O)NC(=O)[C@@H]1CCCN1C(=O)[C@H](CO)NC(=O)[C@H](CO)NC(=O)[C@H](Cc1c[nH]cn1)NC(=O)[C@H](CCCNC(=N)N)NC(=O)[C@H](CC(C)C)NC(=O)[C@H](Cc1ccccc1)NC(=O)CNC(=O)[C@H](C)NC(=O)[C@H](CC(C)C)NC(=O)[C@H](CCCNC(=N)N)NC(=O)[C@H](CCC(N)=O)NC(=O)[C@@H](NC(=O)[C@H](C)NC(=O)[C@@H]1CSSC[C@H](NC(=O)[C@@H](N)CCCCNC(=O)COCCOCCNC(=O)CC[C@H](NC(=O)CCCCCCCCCCCCCCCCCCC(=O)O)C(=O)O)C(=O)N[C@@H](CC(N)=O)C(=O)N[C@@H]([C@@H](C)O)C(=O)N[C@@H](C)C(=O)N[C@@H]([C@@H](C)O)C(=O)N1)[C@@H](C)O)C(=O)N1CCC[C@H]1C(=O)N[C@@H](CO)C(=O)N[C@@H](CO)C(=O)N[C@H](C(=O)N1CCC[C@H]1C(=O)N[C@H](C(=O)NCC(=O)N[C@@H](CO)C(=O)N[C@@H](CC(N)=O)C(=O)N[C@H](C(=O)N[C@@H](Cc1ccc(O)cc1)C(N)=O)[C@@H](C)O)C(C)C)[C@@H](C)O
notes: also called compound 71

Numbered stars: 1 amine (or outer) side, 2 acyl side, 3 side chain; on linkers, the order of the positions; unused ones are H or OH. Bridge positions count the residues as written; N and C are the ends. Side chains are listed from the residue outwards. Ends that are not written are not given here. * marks the point of attachment. C20 diacid = O=C(O)CCCCCCCCCCCCCCCCCCC(=O)*; γGlu = O=C(O)[C@H](CCC(=O)[*:2])N[*:1]; AEEA = NCCOCCOCC(=O)O

One assay addresses T1, human amylin receptor (amylin 3(a) …). The assay can be described thus: cell-based or functional assay.
With B1, the “hAmylin-R funct. EC50” value was found to be 102 pM.
With B2, the “Ratio hCT/hAmylin funct.” value came out at 32.5 and the “hAmylin-R funct. EC50” value amounted to 169 pM.
For B3, the “hAmylin-R funct. EC50” value was 139 pM.
On the same count and under the same terms, with B4 the figure was 89 pM; with B5, 47 pM.
Same read-out and setting: with B6 the figure was 56 pM.

The next assay deals with T2, human calcitonin receptor. As to the kind of experiment: cell-based or functional assay.
Turning to B1, the “hCTR funct. EC50” value was found to be 506 pM.
Same read-out and setting: with B2 the figure was 5490 pM.
The same measure, in the same setting: with B3 the figure was 2140 pM; with B4, 3120 pM.
For B5, the “hCTR funct. EC50” value amounted to 1030 pM.
Still for that read-out and setting: with B6 the figure was 527 pM.
